Assay results reported in US7781394B2, “Methods for identifying anti-tumor and/or anti-angiogenesis drugs with deoxynucleoside 5′-monophosphate N-glycosidase as the target” (Institut Pasteur, priority 2006, dated 2010).

Substrate: O=P(O)(O)OC[C@H]1O[C@@H](n2cnc3c(O)ncnc32)C[C@@H]1O
Experiment: Kinetic parameters of His-RCL (wild-type) with dNMP substrates, initial velocity measurements
Format: biochemical, rat
Settings: purine deoxynucleotides; 37.0 °C
Description: The enzyme activity was determined either spectrophotometrically by following one of the reaction products, hypoxanthine or deoxyribose 5-phosphate, or by HPLC separation and UV detection of the released nucleobase and the remaining substrate. a) dIMP was used as a substrate and the hypoxanthine released oxidized to uric acid by xanthine oxidase. […] The decrease in absorbance at 340 nm was followed on a Amersham Biosciences Ultrospec 3100 pro spectrophotometer, using a millimolar absorbance coefficient of 6.22. […] Initial velocity experiments were carried out at variable concentrations of the six deoxynucleoside 5'-monophosphate: dAMP, dCMP, dGMP, dIMP, dTMP and dUMP (Table 1).

B1: His-RCL (deoxynucleoside 5′-monophosphate N-glycosidase) (Rattus norvegicus) (protein)
chain: MAASGEQAPCSVYFCGSIRGGREDQALYARIVSRLRRYGKVLTEHVADAELEPLGEEAAGGDQFIHEQDLNWLQQADVVVAEVTQPSLGVGYELGRAVALGKPILCLFRPQSGRVLSAMIRGAADGSRFQVWDYAEGEVETMLDRYFEAYLPQKTASSSHPSA
notes: made in house; host or cells: E. coli Bli5 (BL21 (DE3) pDIA17), plasmid pET28aRcl
- Km: 450 µM
- kcat: 0.0066 s⁻¹
- kcat/Km: 14.7 M⁻¹ s⁻¹
